According to US20250009780A1, “AGENTS ENCODING CLDN6 AND CD3 BINDING ELEMENTS FOR TREATING CLDN6-POSITIVE CANCERS” (BIONTECH SE, priority 2021, published 2025):
Several values for one entry are separate records, joined by “and”; a condition that tells them apart may be missing. Identical values can stand only once.

Experiments:
[1] = Single-dose PK study of BNT142 in cynomolgus monkeys
CLDN6 = target: T1, CLDN6 (Homo sapiens, UniProt P56747); assay: Flow cytometric binding assay, HEK-293T-17 CLDN6 transductants; details: 10 μg/mL RiboMab02.1 in HEK-293T-17 supernatant
T1 construct: expressed in transfected cells
T1 sequence (P56747 1-220): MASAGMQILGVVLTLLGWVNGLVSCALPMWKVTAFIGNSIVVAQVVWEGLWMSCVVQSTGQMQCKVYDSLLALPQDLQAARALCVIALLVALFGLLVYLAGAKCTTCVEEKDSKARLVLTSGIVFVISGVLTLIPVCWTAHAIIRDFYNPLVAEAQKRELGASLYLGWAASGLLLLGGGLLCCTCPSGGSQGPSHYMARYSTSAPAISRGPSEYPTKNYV
Excerpt: (§1) Cells were first gated for singlets followed by gating for viable lymphocytes (PBMCs) or viable HEK-293T-17 cells. […] Cynomolgus monkey or human PBMCs and HEK-293T-17 transductants stably expressing luciferase (HEK-293T-17_mock), CLDN3, 4, 6 or 9 served as target cells as indicated. The dotted vertical line marks the peak position of unstained populations.

human PBMCs = assay: In vitro human cytokine release (multiplex ELISA on T-cell activation assay supernatants); type: cell-based
Experimental: Cytokine concentration values for each donor (means of technical triplicates) are shown. Filled symbols represent values with target cells while open symbols represent values without target cells.
Cell culture supernatants obtained from the T-cell activation assay were analyzed to investigate the RiboMab02.1-dependent induction of on- and off-target cytokine release. The levels of human pro-inflammatory cytokines IFN-γ, IL-1β, IL-2, IL-6, IL-10 and TNF-α were measured using a customized multiplex ELISA kit.

human CD3 = target: T2, human CD3 (Homo sapiens, UniProt P07766); assay: Flow cytometric binding assay, human PBMCs; details: 10 μg/mL
T2 construct: endogenous in cells; host or cells: human PBMCs (T cells)
Excerpt: as §1

human PBMCs (T cells) = assay: T-cell proliferation assay (CFSE-labeled PBMCs, flow cytometry); type: cell-based
Excerpt: CFSE-labeled human PBMCs from three healthy donors were co-cultured with CLDN6-positive PA-1 and OV-90 target cells or with CLDN6-negative but control TAA-positive NUGC-4 as well as target-negative MDA-MB-231 control cells in a 12-well culture plate format. An effector-to-target-cell ratio of 10:1 was applied. In addition, PBMCs without (−) target cells were included separately. […] OKT3 antibody (anti-human CD3; black bars) served as positive control for target-independent CD3-driven T-cell proliferation. After 72 h of incubation, the percentages of proliferating T cells were analyzed by flow cytometry.
HEK-293T-17 producer cells were transfected with BNT142 or a control RiboMab-encoding RNA. Supernatants containing RiboMab02.1 or the control RiboMab (specific for an irrelevant TAA) were used as test items. Two concentrations (100 or 1 ng/mL) of RiboMab-containing supernatant were added to co-cultures of carboxyfluorescein succinimidyl ester (CFSE)-labeled human PBMCs and target-positive or -negative cells. PA-1 or OV-90 served as CLDN6-positive and MDA-MB-231 as target-negative cells. CLDN6-negative NUGC-4 cells (expressing the irrelevant TAA) as well as PBMCs in the absence of any target cells were included as further specificity controls. PBMCs from three healthy donors were compared in this assay. After 72 h of incubation, T cells were analyzed by flow cytometry to determine target-dependent proliferation.

[2] = Repeated-dose PK study of BNT142 in mice; type: in vivo, Balb/cJRj mice
Experimental: Female Balb/cJRj mice (n=4) were injected IV with 10 or 30 μg BNT142 or 30 μg Luc_RNA-LNP as control once weekly for a total of five administrations at the time points indicated by the horizontal dotted lines. Blood was drawn from mice at baseline (0 h), 6 h after (6, 174, 342, 510, and 678 h) and 24 h before (144, 312, 480, and 648 h) each BNT142 or saline administration, respectively. A final blood draw was done 816 h after the first BNT142/saline administration.
Treatment groups received five IV bolus injections of 10 or 30 μg BNT142 (approximately 0.4 and 1.2 mg/kg, respectively) or 30 μg Luc_RNA-LNP at a weekly interval. Serum samples were prepared from blood drawn from the animals at 6 h after (tmax) and 24 h prior to (last detectable concentration [Ctrough]) each BNT142 administration. […] The last blood samples were drawn 816 h (34 days) after the first injection.

MDA-MB-231 cell line = assay: T-cell-mediated cytotoxicity assay (bioluminescence), MDA-MB-231; type: cell-based, human; details: CLDN6-negative MDA-MB-231; RiboMab02.1-containing mouse serum
Experimental: Human PBMCs from eight healthy donors were co-cultured with luciferase-expressing tumor cells. CLDN6-positive PA-1 (A) or OV-90 (B) cell lines were used as target cells and the CLDN6-negative MDA-MB-231 (A, B) cell line to control for target specificity. The assays were performed in a 384-well plate format with an effector-to-target-cell ratio of 20:1. Bioluminescence of viable tumor cells was measured as readout. Specific lysis percentages of tumor cell killing are presented. RiboMab02.1-containing mouse serum was serially-diluted (10-fold, 10-point; range: 5.0×10^−7 to 500 ng/mL) and added to the co-cultures, followed by incubation for (A) 24 h with PA-1 cells or (B) 48 h with OV-90 cells. Each line represents tumor cell lysis with an individual donor's PBMC sample.
Bioluminescence-based cytotoxicity assays were conducted using luciferase-expressing cell lines.
The CLDN6-positive human ovarian cancer cell lines PA-1 and OV-90 served to determine target-dependent lysis efficiency while the target-negative human breast cancer cell line MDA-MB-231 was used as negative control to confirm target-specific lysis. Human PBMCs from eight different healthy donors were used as effector cells to reflect the donor-dependent heterogeneity of human T-cell responses. […]

[3] = 0.050 mg/kg, individual animals

T2 sequence (P07766 23-207): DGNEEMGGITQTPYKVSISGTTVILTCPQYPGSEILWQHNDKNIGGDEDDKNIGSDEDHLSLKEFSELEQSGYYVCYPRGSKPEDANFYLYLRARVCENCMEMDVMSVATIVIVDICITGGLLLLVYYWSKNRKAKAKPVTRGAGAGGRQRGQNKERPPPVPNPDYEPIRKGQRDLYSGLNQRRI
T2 sequence (P04234 22-171 partner): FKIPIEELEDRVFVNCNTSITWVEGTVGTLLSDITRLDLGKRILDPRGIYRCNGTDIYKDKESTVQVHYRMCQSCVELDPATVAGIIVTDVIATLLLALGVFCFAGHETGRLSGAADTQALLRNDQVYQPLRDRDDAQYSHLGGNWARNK
T2 sequence (P09693 23-182 partner): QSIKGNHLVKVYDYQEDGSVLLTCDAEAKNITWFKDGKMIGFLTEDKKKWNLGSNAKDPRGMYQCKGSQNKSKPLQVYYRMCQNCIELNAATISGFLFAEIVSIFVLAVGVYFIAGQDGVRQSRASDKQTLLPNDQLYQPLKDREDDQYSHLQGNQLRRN
T2 sequence (P20963 22-164 partner): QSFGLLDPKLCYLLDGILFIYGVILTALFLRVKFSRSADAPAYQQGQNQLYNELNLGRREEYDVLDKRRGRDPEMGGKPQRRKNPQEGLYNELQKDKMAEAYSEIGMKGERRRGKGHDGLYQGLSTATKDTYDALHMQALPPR

In the case of “RiboMab02.1: Fab-(scFv)2-based bispecific antibody (tribody) against CLDN6 and CD3 encoded by BNT142; SEQ ID NOs: 4 and 6; C53S”, the “Effective t1/2 (mean)” value ([1]; 0.050 mg/kg, group, n=2) is reported as 28.1 h, the “Cmax (mean)” value ([1]; 0.050 mg/kg, group, n=3) is reported as 27.5 ng/mL and the “Ctrough (mean)” value ([1]; 0.050 mg/kg, group, n=3) is reported as 3.6 ng/mL. The “tlast (median)” value ([1]; 0.050 mg/kg, group, n=3) was 72 h, the Cmax [1, 3] was 32.8 ng/mL and 19.1 ng/mL and 30.7 ng/mL and the Ctrough [1, 3] was 0.6 ng/mL and 5.6 ng/mL. The tlast [1, 3] was 168 h and 72 h (2×), the “Effective t1/2” value ([1]; 0.050 mg/kg, individual animals, from MRT0-inf) was 28.1 h and the “Effective t1/2 (mean)” value ([1]; […], group, n=1) was 26.5 h. The “Effective t1/2 (mean)” value ([1]; […], group, n=3) was 36.6 h, the “Effective t1/2” value ([1]; […], individual animals, calculated from MRT0-inf) was 26.5 h and the “inter-individual difference in concentration at Cmax” value ([1]; highest dose group) was 2 fold. The “binding to CLDN6” value (CLDN6) was “bound specifically”, the cytokine induction (human PBMCs; absence of CLDN6-positive PA-1 target cells) was “no cytokine induction was observed” and the IL-6 induction (human PBMCs; absence of target cells, highest concentration of RiboMab02.1) was “low induction of IL-6 seen with one donor”. For the same substance, the “release of IFN-γ, IL-1β, IL-2, IL-6, IL-10 and TNF-α” value (human PBMCs; presence of PA-1 target cells, dose- and donor-dependent) was “induced the release of all cytokines”, the “binding to human CD3” value (human CD3) was “recognized” and the T-cell proliferation (human PBMCs (T cells); PBMCs co-cultured with CLDN6-negative NUGC-4 cells) was “no RiboMab02.1-driven T-cell proliferation”. The T-cell proliferation (human PBMCs (T cells); PBMCs co-cultured with MDA-MB-231 cells) was “no RiboMab02.1-driven T-cell proliferation”, the T-cell proliferation (human PBMCs (T cells); absence of any target cells) was “no RiboMab02.1-driven T-cell proliferation” and the T-cell proliferation (human PBMCs (T cells); with OV-90 cells, 1 ng/mL, 72 h) was 2±3%. The T-cell proliferation (human PBMCs (T cells); with OV-90 cells, 100 ng/mL, 72 h) was 24±3%, the T-cell proliferation (human PBMCs (T cells); with PA-1 cells, 1 ng/mL, 72 h) was roughly 44±7% and the T-cell proliferation (human PBMCs (T cells); with PA-1 cells, 100 ng/mL, 72 h, E:T 10:1, three donors) was “approximately 58±2%”. For the same substance, the “RiboMab02.1 peak level (Cmax) in serum” value ([2]; 10 μg BNT142 weekly x5, 6 h after last injection) was “up to 7.4 μg/mL”, the “RiboMab02.1 translation between subsequent injections” value ([2]; either BNT142 dose) was “no loss in RiboMab02.1 translation” and the “Ctrough lower than Cmax” value ([2]; within 7 days of each injection) was “approximately 130 fold”. The target-independent lysis (MDA-MB-231 cell line) was “did not induce target-independent (non-specific) lysis”.
